Experimental findings from article doi:10.1101/145276 are described below.

The target of this series is T1, Mmi1 YTH domain (longer construct) (Schizosaccharomyces pombe, UniProt O74958 326-488).
T1 sequence: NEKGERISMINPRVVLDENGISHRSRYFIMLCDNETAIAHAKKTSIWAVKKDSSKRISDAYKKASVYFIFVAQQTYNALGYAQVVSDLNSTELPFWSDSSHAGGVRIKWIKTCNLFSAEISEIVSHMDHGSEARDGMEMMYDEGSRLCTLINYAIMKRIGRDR
Nature of the series: ITC. For orientation: ITC needs no label: the signal is the heat of the interaction.

Turning to AUUAAACA (ssRNA) [DSR 8-mer], the binding result is on record as “binds”.
